Reference: US20230303667A1 (EMORY UNIVERSITY, published 2023)

T1: Ebola Zaire (Kikwit strain) glycoprotein (Ebola Zaire (Kikwit strain), UniProt P87666 33-676)
T1 sequence: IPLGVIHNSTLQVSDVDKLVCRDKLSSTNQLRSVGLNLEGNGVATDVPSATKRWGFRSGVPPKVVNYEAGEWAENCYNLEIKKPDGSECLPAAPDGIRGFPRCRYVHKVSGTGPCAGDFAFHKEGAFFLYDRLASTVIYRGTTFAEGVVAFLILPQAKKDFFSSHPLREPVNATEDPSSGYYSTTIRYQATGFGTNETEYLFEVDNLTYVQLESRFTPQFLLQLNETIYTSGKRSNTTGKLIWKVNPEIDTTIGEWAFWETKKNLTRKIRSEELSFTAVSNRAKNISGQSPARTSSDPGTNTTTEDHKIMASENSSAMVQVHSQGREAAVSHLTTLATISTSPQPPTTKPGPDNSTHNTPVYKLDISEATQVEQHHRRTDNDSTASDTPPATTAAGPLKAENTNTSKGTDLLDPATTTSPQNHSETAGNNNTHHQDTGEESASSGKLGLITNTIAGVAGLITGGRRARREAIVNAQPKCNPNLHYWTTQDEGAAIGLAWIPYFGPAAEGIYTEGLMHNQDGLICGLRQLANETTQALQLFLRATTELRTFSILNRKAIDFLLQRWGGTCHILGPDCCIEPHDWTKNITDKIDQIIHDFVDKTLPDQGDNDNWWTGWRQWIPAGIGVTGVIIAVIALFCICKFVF


molecular target: T1, Ebola Zaire (Kikwit strain) glycoprotein; assay: cell-based or functional assay

Binder	PRNT50 (ug/ml) for Ebola Zaire (Kikwit strain)
5.1.10B3 (antibody, V domains shown) VH: EVQLVESGGGLVQPGGSLRLSCAASGFTFRSYDMHWVRQATGKGLEWVSAIGTAGDTYYPGSVKGRFTISRENAKNSLYLQMNSLRAEDTAVYYCARVRFGDTAVDYWGQGTLVTVSS VL: DIQMTQSPSSLSASVGDRVTITCRASQSISSFLNWHQQKPGKAPKLLIYAASSLQSGVPSRFSGSGSGTDFTLTISSLQPEDFAIYYCQQSYISPFTFGPGTKVDIK	3.13 µg/mL
2.1.1D07 (antibody, V domains shown) VH: EVQLLESGGGLVQPGGSLRLSCAASGFTFSTYGMSWVRQAPGKGLEWVSGISGSGGITYYADSVRGRFTISRDNSKNTLYLRMNSLRAEDTAVYYCAKVGEYYDFWSGYSPFEYWGQGTL VL: EIVLTQSPGTLSLSPGERATLSCRASQSVSSSYLAWYQQKPGQAPRLLIYGAFNRATGIPDRFSGSGSGTDFTLTISRLEPEDFAVYYCQLYGSSPWTFGQGTKVEIK	6.25 µg/mL
2.1.1D05 (antibody, V domains shown) VH: EVQLVESGGGLVKPGGSLRLSCAASGFTFSNAWMNWVRQAPGKGLEWVGRIKSKTDGGAADYAAPVKGRFTISRDDSKNTLYLQMNSLKTEDTAVYFCTTVYRYNYDSVWGQGTLVTVSS VL: QSVLTQPPSVSGAPGQRVTISCTGSSSNIGAGYDVYWYQQLPGTAPKLLIYGNSNRPSGVPDRFSGSKSGTSASLAITGLQAEDEADYYCQSFDSSLRDSWVFGGGTKLTVL	3.13 µg/mL
5.6.1A02 (antibody, V domains shown) VH: EVQLVESGGGLIQPGGSLRLSCAASGFAVRSNYLSWVRQAPGKGLEWVSLIYSGGLTAYADSVEGRFTISRDNSKNTLYLQMNSLRVEDTALYYCARVASSAGTFYYGMDVWGQGTTVTVSS VL: not shown	0.195 µg/mL
9.6.3D06 (antibody, V domains shown) VH: EVQLLESGGGLVQPGGSLRLSCAASGFTFSKYAMIWVRQAPGKGLQWVAGINKSGGRTYYADSVRGRFTISRDNSKNTLYLQMKSLRADDTAMYYCAKEGSPLSDVLLVAAPFGWFDPWGQGTLVTVSS VL: DIQMTQSPSTLSASVGDRVTITCRASQRINNLVAWYQQKPGKAPKVMIYDASSLKSGVPSRFSGSGSGTEFTLTISSLQPDDFATYFCQQYDTDSGWTFGQGTKVEIK	1.57 µg/mL
